{"source": "paper doi:10.1101/2024.02.04.578783", "key": {"[1]": {"molecular_target": "BCL2-mCherry (wild type) (UniProt P10415)", "experiment": "single-molecule pull-down and co-IP"}, "[2]": {"molecular_target": "BCL2 D103E-mCherry (UniProt P10415)", "experiment": "single-molecule pull-down and co-IP"}}}
{"substance": "BIMEL, TMD-truncated, eGFP-labeled (domain or fragment)", "values": [{"measurement": "Kd", "setting": "[1]", "value": 0.0273, "unit": "µM"}]}
{"substance": "BH3 domain of BIM, eGFP-labeled (domain or fragment)", "values": [{"measurement": "Kd", "setting": "[2]", "value": 0.0321, "unit": "µM"}, {"measurement": "Kd", "setting": "[1]", "value": 0.0536, "unit": "µM"}]}
{"substance": "BIMS, TMD-truncated, eGFP-labeled (domain or fragment)", "values": [{"measurement": "Kd", "setting": "[1]", "value": 0.0157, "unit": "µM"}]}
{"substance": "BIML, TMD-truncated, eGFP-labeled (domain or fragment)", "values": [{"measurement": "Kd", "setting": "[1]", "value": 0.0633, "unit": "µM"}]}
